# Assay results as given in PMC11560669 (Angewandte Chemie (International ed. in English), 2024).
# Numbering of substitutions follows the chain as printed. In names and notes the source's numbering stands. Where two headings read alike, the source gives them in different places.
# B1: nanobody 2rs15d(D54Y) with the Arg mutation at G53 (VHH)
# VHH: QVQLQESGGGSVQAGGSLKLTCAASGYIFNSCGMGWYRQSPGRERELVSRISRYGDTWHKESVKGRFTISQDNVKKTLYLQMNSLKPEDTAVYFCAVCYNLETYWGQGTQVTVSS
# B2: nanobody 2rs15d(D54Y) with the Arg mutation at G55 (VHH)
# VHH: B1 VHH with R53G, G55R
# B3: nanobody 2rs15d(D54Y) with the Arg mutation at D56 (VHH)
# VHH: B1 VHH with R53G, D56R
# How the values were obtained:
# MBP-Z(6H) = experiment: cross-linking
# MBP-Z(6K) = experiment: cross-linking
# MBP-Z(6Y) = experiment: cross-linking
# [1] = target: extracellular domain (ECD) of human epidermal growth factor receptor (EGFR) (human) (UniProt P00533); experiment: cross-linking
# [2] = target: extracellular domain (ECD) of human epidermal growth factor receptor 2 (HER2) (human) (UniProt P04626); experiment: cross-linking
# [3] = target: extracellular domain (ECD) of human epidermal growth factor receptor 2 (HER2) (human) (UniProt P04626); experiment: cross-linking; remark: listed apart in the source
# [4] = target: extracellular domain (ECD) of human epidermal growth factor receptor 2 (HER2) (human) (UniProt P04626); experiment: cross-linking; remark: listed apart in the source
# [5] = target: extracellular domain (ECD) of human epidermal growth factor receptor 2 (HER2) (Homo sapiens, UniProt P04626); experiment: ELISA
molecule,measurement,setting,value
Zspa affibody Afb(36FSY/F32R) (designed binder),fold change of cross-linking rate against Afb(36FSY),MBP-Z(6H),3.7 fold
same,fold change of cross-linking yield at 16 h against Afb(36FSY),MBP-Z(6H),2.9 fold
same,fold change of cross-linking rate against Afb(36FSY),MBP-Z(6K),3.4 fold
same,fold change of cross-linking yield at 16 h against Afb(36FSY),MBP-Z(6K),2.3 fold
same,fold change of cross-linking rate against Afb(36FSY),MBP-Z(6Y),10.5 fold
same,fold change of cross-linking yield at 16 h against Afb(36FSY),MBP-Z(6Y),7.9 fold
Zspa affibody Afb(36PFY/F32R) (designed binder),percent increase of the PFEx cross-linking rate against Afb(36PFY),MBP-Z(6H),44%
same,kobs of cross-linking,MBP-Z(6Y),0.0218 h⁻¹
covalent NK engager 7D12(Y109FSY/E44R)-C21 (bispecific antibody),fold change of kobs of cross-linking against 7D12(Y109FSY)-C21,[1],2.5 fold
nanobody 2rs15d(D54FSY) (VHH),kobs of cross-linking,[2],0.568 h⁻¹
nanobody 2rs15d(D54FSY/D56R) (VHH),fold change of kobs of cross-linking against 2rs15d(D54FSY) at pH 6.5,[3],6.6 fold
same,kobs of cross-linking,[3],0.888 h⁻¹
same,kobs of cross-linking,[2],1.96 h⁻¹
same,fold change of kobs of cross-linking against 2rs15d(D54FSY) at pH 6.0,[4],10.7 fold
same,kobs of cross-linking,[4],0.705 h⁻¹
nanobody 7D12(Y109FFY/E44R) (VHH),kobs of cross-linking,[1],0.66 h⁻¹
nanobody 7D12(Y109FSY/E44R) (VHH),kobs of cross-linking,[1],0.342 h⁻¹
nanobody 7D12(Y109mFSY/E44R) (VHH),fold change of kobs of cross-linking against 7D12(Y109mFSY),[1],1.9 fold
B1,binding result,[5],binds
B2,binding result,[5],binds
B3,fold decrease of binding affinity against 2rs15d(D54Y),[5],14 fold
